Drawing on publication PMC7554088, this text covers stoichiometry N for 1 molecule.

The assay has as its target T1, Rev7, accessory subunit of S. cerevisiae DNA polymerase ζ (S. cerevisiae), P38927.
T1 chain: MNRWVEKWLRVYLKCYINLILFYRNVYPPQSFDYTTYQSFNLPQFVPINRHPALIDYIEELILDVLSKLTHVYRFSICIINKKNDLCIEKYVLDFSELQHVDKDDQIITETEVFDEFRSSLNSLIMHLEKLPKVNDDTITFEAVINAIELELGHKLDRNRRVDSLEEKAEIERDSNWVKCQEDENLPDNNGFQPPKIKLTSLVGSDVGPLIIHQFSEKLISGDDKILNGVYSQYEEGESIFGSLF
In words: cryo-EM structure. Particulars: remark: other sources report otherwise.

B1: Rev7, accessory subunit of S. cerevisiae DNA polymerase ζ, P38927 1-245 (natural protein)
chain: T1 chain
On to B1, for which the stoichiometry N (as a rule, the number of molecules, sites or subunits per partner or assembly) came out at 2.
